Like-named read-outs stand apart in the source and are kept apart here. Blank lines part the entries; values can stand above or below the molecule they belong to.
How the values were obtained:
[1] = molecular target: T1, Lactobacillus delbrueckii ssp. Bulgaricus R-2-hydroxy acid dehydrogenase (LB2HADH) variant H206Q (Q206 mutant, Histidine 206 replaced by glutamine) (Lactobacillus delbrueckii, UniProt Q48534, H207Q); test: Steady-state kinetics of 2-keto acid reduction, followed by NADH oxidation; assay type: biochemical
T1 construct: no tag mentioned
T1 sequence (Q48534 1-333 H207Q): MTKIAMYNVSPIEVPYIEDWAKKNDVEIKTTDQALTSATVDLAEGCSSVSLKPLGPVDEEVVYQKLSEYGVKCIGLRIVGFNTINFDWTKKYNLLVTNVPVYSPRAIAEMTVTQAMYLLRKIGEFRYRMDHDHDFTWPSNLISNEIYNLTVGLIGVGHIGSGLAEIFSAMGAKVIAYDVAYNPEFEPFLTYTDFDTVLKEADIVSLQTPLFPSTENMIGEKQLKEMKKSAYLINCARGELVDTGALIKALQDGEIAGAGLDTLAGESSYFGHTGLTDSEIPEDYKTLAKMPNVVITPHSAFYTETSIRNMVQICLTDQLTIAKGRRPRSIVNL
Procedure: Glutamine 206 variant of LB2HADH:
A site-directed mutant was prepared from pGIN113 (Bernard, N., et al, Eur. J. Biochem., (1994), 224, 439-446) using a mutagenic oligonucleotide:
and the Promega "altered sites mutagenesis" kit. The enzyme was purified as for the wild type.
The vQ206 /vwt was 45 at 70 mM substrate.
The results are illustrated in accompanying FIG. 2, the Vmax values for H206Q being divided by 10 to obtain a clearer representation of comparative performance. […] (The steady-state kinetic constants of LB2HADH and H206Q in Table 6 below were obtained using standard stopped flow measurements.)

[2] = molecular target: T2, Lactobacillus delbrueckii ssp. Bulgaricus R-2-hydroxy acid dehydrogenase (LB2HADH), wild type (H206), SEQ ID NO:1 (Lactobacillus delbrueckii, UniProt Q48534); test: as above; assay type: biochemical
T2 construct: no tag mentioned
T2 sequence (Q48534 1-333): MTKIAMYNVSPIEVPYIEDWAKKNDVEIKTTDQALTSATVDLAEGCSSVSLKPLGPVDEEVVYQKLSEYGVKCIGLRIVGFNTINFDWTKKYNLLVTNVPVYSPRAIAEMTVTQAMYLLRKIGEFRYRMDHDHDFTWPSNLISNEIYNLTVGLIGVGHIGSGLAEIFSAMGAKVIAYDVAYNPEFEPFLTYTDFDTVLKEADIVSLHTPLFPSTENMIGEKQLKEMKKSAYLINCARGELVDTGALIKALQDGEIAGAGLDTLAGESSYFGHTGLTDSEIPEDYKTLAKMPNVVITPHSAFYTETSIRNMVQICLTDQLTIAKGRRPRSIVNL
Description: Since 1950, a number of workers have investigated the reduction of 2-oxo carboxylic acids catalysed by R-hydroxy acid dehydrogenases. For these studies, enzymes isolated from a variety of bacte rial sources have bee n employed. For a given 2-oxo acid, a given enzyme activity may be examined by UV spectroscopy and quantified with the Michaelis constant, Km, and the catalytic turnover, kcat.
The two compartment model for the binding pocket of the enzyme is illustrated in accompanying FIG. 1.
The substrate specificity of the purified enzyme was established by following the kinetics of reduction of a variety of 2-ketoacids (see Table 2 above).
(The steady-state kinetic constants of LB2HADH and H206Q in Table 6 below were obtained using standard stopped flow measurements.)

[3] = substrate: NC(=O)C1=CN([C@@H]2O[C@H](COP(=O)(O)OP(=O)(O)OC[C@H]3O[C@@H](n4cnc5c(N)ncnc54)[C@H](O)[C@@H]3O)[C@@H](O)[C@H]2O)C=CC1; test: purified protein, by the assay type; conditions: other: pH 5.5, stopped flow
[4] = substrate: CCCC(=O)C(=O)O; test: purified protein, by the assay type; assay type: biochemical, Lactobacillus delbrueckii ssp. Bulgaricus; conditions: other: pH 7.5; [NADH] = 0.2 mM; pH 7.5
[5] = substrate: CC(C)C(=O)C(=O)O; test: purified protein, by the assay type; assay type: biochemical, Lactobacillus delbrueckii ssp. Bulgaricus; conditions: other: pH 7.5; [NADH] = 0.2 mM; pH 7.5
[6] = substrate: CCC(=O)C(=O)O; test: purified protein, by the assay type; assay type: biochemical, Lactobacillus delbrueckii ssp. Bulgaricus; conditions: other: pH 7.5; [NADH] = 0.2 mM; pH 7.5
[7] = substrate: O=C(O)C(=O)CCc1ccccc1; test: purified protein, by the assay type; assay type: biochemical, Lactobacillus delbrueckii ssp. Bulgaricus; conditions: other: pH 7.5; [NADH] = 0.2 mM; pH 7.5
[8] = substrate: CC(C)CC(=O)C(=O)O; test: purified protein, by the assay type; assay type: biochemical, Lactobacillus delbrueckii ssp. Bulgaricus
[9] = substrate: CCCCC(=O)C(=O)O; test: purified protein, by the assay type; assay type: biochemical, Lactobacillus delbrueckii ssp. Bulgaricus; conditions: other: pH 7.5; [NADH] = 0.2 mM; pH 7.5
[10] = substrate: O=C(O)C(=O)CCC1CCCC1; test: purified protein, by the assay type; assay type: biochemical, Lactobacillus delbrueckii ssp. Bulgaricus
[11] = substrate: CC(=O)C(=O)O; test: purified protein, by the assay type; assay type: biochemical, Lactobacillus delbrueckii ssp. Bulgaricus; conditions: other: pH 7.5; [NADH] = 0.2 mM; pH 7.5
[12] = other: pH 5.0, stopped flow, pH 5.0
[13] = other: pH 5.5, stopped flow, pH 5.5
[14] = other: pH 6.0, stopped flow, pH 6.0
[15] = other: pH 6.5, stopped flow, pH 6.5
[16] = other: pH 7.5, [NADH] = 0.2 mM, pH 7.5

Molecule: CC(C)CC(=O)C(=O)O [ketoisocaproate, 4-methyl-2-oxo-pentanoic acid]
Ki ([1]; read-out: Ki KIC, pH 5.0, stopped flow): 3.5 mM | Ki ([1]; read-out: Ki KIC, pH 5.5, stopped flow): 8.1 mM | Ki ([1]; read-out: Ki KIC, pH 6.0, stopped flow): 5.8 mM | Ki ([1]; read-out: Ki KIC, pH 6.5, stopped flow): 7.6 mM | Ki ([2]; pH 5.5, stopped flow, read-out: Ki KIC): 240 µM | Vm/KM ([2]; pH 6): 5e+06 s⁻¹ M⁻¹ | Ki ([2]; pH 6.0, stopped flow, read-out: Ki KIC): 310 µM | Vm (VM (app): turnover at optimal substrate concentration) ([2]; pH 7.5, [NADH] = 0.2 mM): 20 s⁻¹

Km ([2]; pH 7.5, [NADH] = 0.2 mM, read-out: Km (KM (app): substrate concentration for 0.5 Vmax)): 31 µM
Molecule: O=C(O)C(=O)Cc1ccccc1 [phenylpyruvate]

Molecule: CC(=O)C(=O)O [pyruvate]
Vm (VM (app): turnover at optimal substrate concentration) ([2]; pH 7.5, [NADH] = 0.2 mM): 48 s⁻¹

Molecule: O=C(O)C(=O)CCC1CCCC1 [cyclopentylmethyl, 4-cyclopentyl-2-keto-butanoate]
Ki ([1]; read-out: Ki (substrate), substrate inhibition, Q206 mutant): > 100 mM | Ki ([2]; substrate inhibition, wild type, read-out: Ki (substrate)): 2000 µM

Molecule: O=C(O)C(=O)CCc1ccccc1 [benzylpyruvate, 2-oxo-4-phenyl butanoate]
Vm (VM (app): turnover at optimal substrate concentration) ([2]; pH 7.5, [NADH] = 0.2 mM): 51 s⁻¹

B1: Lactobacillus delbrueckii ssp. Bulgaricus R-2-hydroxy acid dehydrogenase (LB2HADH), wild type (H206), SEQ ID NO:1 (Lactobacillus delbrueckii) (protein)
chain: MTKIAMYNVSPIEVPYIEDWAKKNDVEIKTTDQALTSATVDLAEGCSSVSLKPLGPVDEEVVYQKLSEYGVKCIGLRIVGFNTINFDWTKKYNLLVTNVPVYSPRAIAEMTVTQAMYLLRKIGEFRYRMDHDHDFTWPSNLISNEIYNLTVGLIGVGHIGSGLAEIFSAMGAKVIAYDVAYNPEFEPFLTYTDFDTVLKEADIVSLHTPLFPSTENMIGEKQLKEMKKSAYLINCARGELVDTGALIKALQDGEIAGAGLDTLAGESSYFGHTGLTDSEIPEDYKTLAKMPNVVITPHSAFYTETSIRNMVQICLTDQLTIAKGRRPRSIVNL
notes: no tag mentioned
Km [3]: 15 µM | Km [4]: 57 µM | kcat/Km [4]: 330000 s⁻¹ M⁻¹ | Km [5]: 20 mM | Km [6]: 1700 µM | kcat/Km [6]: 28000 s⁻¹ M⁻¹ | Km [7]: 36 µM | kcat/Km [7]: 1.4e+06 s⁻¹ M⁻¹ | Km [8, 12]: 25 µM | kcat [8, 12]: 170 s⁻¹ | kcat/Km [8, 12]: 7e+06 s⁻¹ M⁻¹ | Km [8, 13]: 30 µM | kcat [8, 13]: 240 s⁻¹ | kcat/Km [8, 13]: 8e+06 s⁻¹ M⁻¹ | Km [8, 14]: 50 µM | kcat [8, 14]: 245 s⁻¹ | kcat/Km [8, 14]: 5e+06 s⁻¹ M⁻¹ | Km [8, 15]: 15 µM | kcat [8, 15]: 75 s⁻¹ | kcat/Km [8, 15]: 5e+06 s⁻¹ M⁻¹ | Km [8, 16]: 22 µM | kcat/Km [8, 16]: 910000 s⁻¹ M⁻¹ | Km [9]: 20 µM | kcat/Km [9]: 650000 s⁻¹ M⁻¹ | Km ([10]; other: 0.2 mM NADH, wild type): 8 µM | kcat ([10]; other: 0.2 mM NADH, wild type): 25 s⁻¹ | Km [10, 16]: 10 µM | kcat/Km [10, 16]: 2.8e+06 s⁻¹ M⁻¹ | Km [11]: 20 mM
